The source of these data is the supplement of paper PMC6757056.

Sequences and labels used below:
B1: library; a variant is named by its letters at N, in order (parent)
chain: GCUGUCACCGGUGCUUGGUACGUUAUAUUCAGCCGGUCUGAUGAGUCUNNNNNNAGACGAAACAGC

Variants of B1 are the subject of data set [1]. The experiment in a line: normalized RNA/DNA level without ligand (relative to sTRSVctl = 100) (log10 (% of sTRSVctl)); HEK293T overexpressing SLC46A1; higher = less ribozyme self-cleavage, higher mRNA level. Conditions: without (6R,S)-folinic acid; ligand present: no. In short, it runs like this:
(§1)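 Ribozyme switch library plasmids with mCherry reporters (eGFP in certain ligand experiments) went into HEK293T cells at 4 µg per 6-well well. Where ligand was used, it was applied 1 h before transfection, and total RNA was extracted with EDTA 72 h later for reverse transcription, amplification, barcoding and sequencing. RNA level is the RNA-to-DNA read ratio normalized to a spiked-in non-cleaving sequence or to the leading sequences, then scaled and log-transformed. Scaling was ×100 with log10, the leading set comprised 25 sequences, and the cutoff was ≥100 DNA reads.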

Data set [2] covers variants of B1. In words: normalized RNA/DNA level with ligand (relative to sTRSVctl = 100) (log10 (% of sTRSVctl)); HEK293T overexpressing SLC46A1; ligand concentration (+) RNA-Seq: 6 mM; higher = less ribozyme self-cleavage, higher mRNA level. Conditions: with (6R,S)-folinic acid; ligand present: yes. In outline: as §1

± gives the standard deviation of the averaged measurements.

Turning to ACGGUC, the “normalized RNA/DNA level without ligand (log10)” value in data set [1] came to 2.088 ± 0.0078. In data set [2], the “normalized RNA/DNA level with ligand (log10)” value was determined as 2.06 ± 0.036.
For ACGGUA, the “normalized RNA/DNA level without ligand (log10)” value in data set [1] amounted to 1.9058 ± 0.0011. Besides, the “normalized RNA/DNA level with ligand (log10)” value in data set [2] worked out at 1.95 ± 0.029.
As to ACGGUG, in data set [1], the “normalized RNA/DNA level without ligand (log10)” value stood at 1.924 ± 0.0096. Moreover, the “normalized RNA/DNA level with ligand (log10)” value in data set [2] was 2.003 ± 0.013.
Take CCGGCU: the “normalized RNA/DNA level without ligand (log10)” value in data set [1] is 2.08 ± 0.029. For the same variant, in data set [2], the “normalized RNA/DNA level with ligand (log10)” value was determined as 2.051 ± 0.013.
Take CCGGCG: the “normalized RNA/DNA level without ligand (log10)” value in data set [1] is 2.05 ± 0.025. Further, the “normalized RNA/DNA level with ligand (log10)” value in data set [2] is 2.05 ± 0.038.
CCGGCA: the “normalized RNA/DNA level without ligand (log10)” value in data set [1] amounted to 2.108 ± 0.021. Besides, in data set [2], the “normalized RNA/DNA level with ligand (log10)” value came to 2.049 ± 0.016.
In the case of CCGGCC, the “normalized RNA/DNA level without ligand (log10)” value in data set [1] turned out to be 2.094 ± 0.013. The “normalized RNA/DNA level with ligand (log10)” value in data set [2] stood at 2.03 ± 0.013.
As for CCGCGG, the “normalized RNA/DNA level without ligand (log10)” value in data set [1] worked out at 2.031 ± 0.0025. Moreover, the “normalized RNA/DNA level with ligand (log10)” value in data set [2] was found to be 2.0168 ± 0.0019.
On to CCGCGU, for which, in data set [1], the “normalized RNA/DNA level without ligand (log10)” value came out at 2.05 ± 0.026. Besides, the “normalized RNA/DNA level with ligand (log10)” value in data set [2] was determined as 2.054 ± 0.015.
With CCGCGC, in data set [1], the “normalized RNA/DNA level without ligand (log10)” value turned out to be 2.067 ± 0.012. Moreover, the “normalized RNA/DNA level with ligand (log10)” value in data set [2] was determined as 2.05 ± 0.068.
The like results for CCGCGA were, in that order, 2.06 ± 0.024 and 2.06 ± 0.034.
ACGUCA: in data set [1], the “normalized RNA/DNA level without ligand (log10)” value was 2.037 ± 0.0081. For the same variant, in data set [2], the “normalized RNA/DNA level with ligand (log10)” value was determined as 2.027 ± 0.0046.
Turning to ACGUCC, in data set [1], the “normalized RNA/DNA level without ligand (log10)” value is 2.03 ± 0.023. Further, the “normalized RNA/DNA level with ligand (log10)” value in data set [2] was 2 ± 0.068.
Take ACGUCG: the “normalized RNA/DNA level without ligand (log10)” value in data set [1] came to 2 ± 0.022. The “normalized RNA/DNA level with ligand (log10)” value in data set [2] came out at 2.06 ± 0.014.
ACGGCG: the “normalized RNA/DNA level without ligand (log10)” value in data set [1] was determined as 2.015 ± 0.0037. Further, the “normalized RNA/DNA level with ligand (log10)” value in data set [2] was found to be 2.0489 ± 0.00014.
ACGGCC: the “normalized RNA/DNA level without ligand (log10)” value in data set [1] stood at 2.117 ± 0.009. Further, the “normalized RNA/DNA level with ligand (log10)” value in data set [2] worked out at 2.06 ± 0.056.
ACGGCU: the “normalized RNA/DNA level without ligand (log10)” value in data set [1] came out at 2.048 ± 0.014. Also, the “normalized RNA/DNA level with ligand (log10)” value in data set [2] is 2.04 ± 0.044.
As to GCGGAC, the “normalized RNA/DNA level without ligand (log10)” value in data set [1] came out at 1.972 ± 0.0066. For the same variant, the “normalized RNA/DNA level with ligand (log10)” value in data set [2] turned out to be 2.05 ± 0.029.
For the variant GCGGAU, the “normalized RNA/DNA level without ligand (log10)” value in data set [1] amounted to 2.021 ± 0.0026. The “normalized RNA/DNA level with ligand (log10)” value in data set [2] was found to be 2.04 ± 0.042.
For the variant GCGGAA, the “normalized RNA/DNA level without ligand (log10)” value in data set [1] was 1.978 ± 0.007. The “normalized RNA/DNA level with ligand (log10)” value in data set [2] is 2.02 ± 0.048.
With CCGGUA, the “normalized RNA/DNA level without ligand (log10)” value in data set [1] is 2.01 ± 0.038. In data set [2], the “normalized RNA/DNA level with ligand (log10)” value turned out to be 2.009 ± 0.011.
The like results for CCGGUC were, in that order, 2.0714 ± 0.0011 and 2.03 ± 0.069.
The like results for CCGGUG were, in that order, 2.04 ± 0.04 and 2.051 ± 0.0038.
Regarding CCGCUU, the “normalized RNA/DNA level without ligand (log10)” value in data set [1] came out at 2.04 ± 0.024. Moreover, the “normalized RNA/DNA level with ligand (log10)” value in data set [2] was found to be 2.0508 ± 0.0014.
Taken in the same sequence, the figures for CCGCUC were 2.112 ± 0.0092 and 2.09 ± 0.081.
Take CCGCUG: the “normalized RNA/DNA level without ligand (log10)” value in data set [1] worked out at 2.047 ± 0.0097. Also, the “normalized RNA/DNA level with ligand (log10)” value in data set [2] came to 2.067 ± 0.012.
As to CCGCUA, the “normalized RNA/DNA level without ligand (log10)” value in data set [1] turned out to be 2.01 ± 0.019. Also, the “normalized RNA/DNA level with ligand (log10)” value in data set [2] was determined as 2.02 ± 0.043.
With ACGCCA, the “normalized RNA/DNA level without ligand (log10)” value in data set [1] was found to be 2.037 ± 0.012. Moreover, in data set [2], the “normalized RNA/DNA level with ligand (log10)” value was 2.02 ± 0.035.
Turning to ACGCCG, the “normalized RNA/DNA level without ligand (log10)” value in data set [1] was found to be 2.0192 ± 0.00023. Further, the “normalized RNA/DNA level with ligand (log10)” value in data set [2] is 2.029 ± 0.013.
The like results for ACGCCC were, in that order, 2.051 ± 0.0035 and 2.03 ± 0.059.
As to GCGUCG, in data set [1], the “normalized RNA/DNA level without ligand (log10)” value stood at 2.042 ± 0.0035. In data set [2], the “normalized RNA/DNA level with ligand (log10)” value was found to be 2.07 ± 0.035.
For the variant GCGUCU, in data set [1], the “normalized RNA/DNA level without ligand (log10)” value was 2.064 ± 0.0062. Also, the “normalized RNA/DNA level with ligand (log10)” value in data set [2] came to 2.07 ± 0.034.
For GCGUCC, in data set [1], the “normalized RNA/DNA level without ligand (log10)” value is 2.01 ± 0.0034. In addition, the “normalized RNA/DNA level with ligand (log10)” value in data set [2] is 1.997 ± 0.0077.
As for GCGUCA, the “normalized RNA/DNA level without ligand (log10)” value in data set [1] came out at 2.06 ± 0.025. Also, the “normalized RNA/DNA level with ligand (log10)” value in data set [2] was 2.08 ± 0.031.
In the case of GCGGCA, the “normalized RNA/DNA level without ligand (log10)” value in data set [1] came out at 2.071 ± 0.0038. Besides, in data set [2], the “normalized RNA/DNA level with ligand (log10)” value is 2.07 ± 0.048.
Regarding GCGGCU, the “normalized RNA/DNA level without ligand (log10)” value in data set [1] worked out at 2.0832 ± 0.0008. For the same variant, the “normalized RNA/DNA level with ligand (log10)” value in data set [2] came to 2.05 ± 0.031.
GCGGCC: the “normalized RNA/DNA level without ligand (log10)” value in data set [1] worked out at 2.072 ± 0.011. The “normalized RNA/DNA level with ligand (log10)” value in data set [2] came to 2.077 ± 0.02.
With GCGGCG, the “normalized RNA/DNA level without ligand (log10)” value in data set [1] was found to be 2.07 ± 0.023. Also, the “normalized RNA/DNA level with ligand (log10)” value in data set [2] came to 2.1 ± 0.061.
Taken in the same sequence, the figures for UCGCUU were 2.033 ± 0.019 and 2.01 ± 0.081.
For the variant UCGCUA, the “normalized RNA/DNA level without ligand (log10)” value in data set [1] was found to be 2.021 ± 0.015. Also, the “normalized RNA/DNA level with ligand (log10)” value in data set [2] was found to be 2.07 ± 0.035.
Taken in the same sequence, the figures for UCGCUC were 2.04 ± 0.028 and 2.04 ± 0.059.
UCGCUG: in data set [1], the “normalized RNA/DNA level without ligand (log10)” value stood at 2.01 ± 0.021. Further, the “normalized RNA/DNA level with ligand (log10)” value in data set [2] was found to be 2.06 ± 0.037.
Take GCGUAU: in data set [1], the “normalized RNA/DNA level without ligand (log10)” value is 2.03 ± 0.026. In addition, the “normalized RNA/DNA level with ligand (log10)” value in data set [2] turned out to be 2.06 ± 0.022.
In the case of GCGGGU, in data set [1], the “normalized RNA/DNA level without ligand (log10)” value was determined as 2.05 ± 0.045. Further, the “normalized RNA/DNA level with ligand (log10)” value in data set [2] was 2.017 ± 0.012.
On to GCGGGG, for which, in data set [1], the “normalized RNA/DNA level without ligand (log10)” value amounted to 2.054 ± 0.0092. For the same variant, the “normalized RNA/DNA level with ligand (log10)” value in data set [2] was 2.055 ± 0.017.
Turning to GCGGGA, the “normalized RNA/DNA level without ligand (log10)” value in data set [1] was 2.041 ± 0.0095. The “normalized RNA/DNA level with ligand (log10)” value in data set [2] came to 2.06 ± 0.023.
Taken in the same sequence, the figures for GCGGGC were 1.95 ± 0.045 and 1.959 ± 0.017.
The like results for UCGGGA were, in that order, 1.937 ± 0.012 and 2.03 ± 0.056.
Taken in the same sequence, the figures for UCGGGC were 2.06 ± 0.021 and 2.03 ± 0.055.
On to UCGGGG, for which, in data set [1], the “normalized RNA/DNA level without ligand (log10)” value amounted to 1.86 ± 0.027. In data set [2], the “normalized RNA/DNA level with ligand (log10)” value was 1.99 ± 0.039.
As for UCGGGU, the “normalized RNA/DNA level without ligand (log10)” value in data set [1] was 1.9958 ± 0.001. Besides, the “normalized RNA/DNA level with ligand (log10)” value in data set [2] worked out at 2.03 ± 0.038.
ACGCGG: the “normalized RNA/DNA level without ligand (log10)” value in data set [1] was 1.965 ± 0.004. Further, in data set [2], the “normalized RNA/DNA level with ligand (log10)” value amounted to 2.03 ± 0.066.
ACGCGC: in data set [1], the “normalized RNA/DNA level without ligand (log10)” value turned out to be 1.997 ± 0.0046. Moreover, the “normalized RNA/DNA level with ligand (log10)” value in data set [2] came to 2.01 ± 0.059.
In the case of ACGCGU, the “normalized RNA/DNA level without ligand (log10)” value in data set [1] was 2.022 ± 0.0046. Moreover, the “normalized RNA/DNA level with ligand (log10)” value in data set [2] was 2.02 ± 0.018.
For the variant ACGCGA, the “normalized RNA/DNA level without ligand (log10)” value in data set [1] is 1.986 ± 0.011. Also, the “normalized RNA/DNA level with ligand (log10)” value in data set [2] was 2.042 ± 0.0061.
Taken in the same sequence, the figures for ACGGAG were 1.839 ± 0.0062 and 2.029 ± 0.014.
On to ACGGAC, for which, in data set [1], the “normalized RNA/DNA level without ligand (log10)” value is 2.018 ± 0.015. The “normalized RNA/DNA level with ligand (log10)” value in data set [2] is 2.01 ± 0.03.
On to ACGGAA, for which the “normalized RNA/DNA level without ligand (log10)” value in data set [1] is 1.965 ± 0.0049. Moreover, in data set [2], the “normalized RNA/DNA level with ligand (log10)” value came out at 2.024 ± 0.0076.
